In patent US7118737:

Target: CCR5 (UniProt P51681)
Experiment: cell-based or functional assay

UniProt P51681, sequence (P51681 whole entry): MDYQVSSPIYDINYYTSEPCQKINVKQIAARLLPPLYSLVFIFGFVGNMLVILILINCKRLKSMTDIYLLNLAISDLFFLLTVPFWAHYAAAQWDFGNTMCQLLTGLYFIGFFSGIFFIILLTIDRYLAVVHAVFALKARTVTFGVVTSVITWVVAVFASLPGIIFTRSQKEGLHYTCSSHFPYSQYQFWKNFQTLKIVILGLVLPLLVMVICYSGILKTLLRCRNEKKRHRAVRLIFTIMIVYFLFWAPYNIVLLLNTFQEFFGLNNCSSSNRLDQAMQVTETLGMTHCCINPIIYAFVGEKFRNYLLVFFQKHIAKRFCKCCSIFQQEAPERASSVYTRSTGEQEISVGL

Question: How did the EC50, inhibition of HeLa P4-CCR5/HeLa-Env-ADA cell fusion (β-galactosidase reporter) turn out when “NNY-RANTES (2-68) (from UniProt P13501 25-91) (ligand)” was run?
Answer: 0.323 nM

Question: How did the EC50, inhibition of HeLa P4-CCR5/HeLa-Env-ADA cell fusion (β-galactosidase reporter) turn out when “AOP-RANTES (2-68) (from UniProt P13501 25-91) (ligand)” was run?
Answer: 1.81 nM
